Results: US20120093799A1, “RECOMBINANTLY MODIFIED PLASMIN” (priority 2007, published 2012)

Columns and labels:
[1] = amidolytic activity with plasmin substrate S-2251, steady-state kinetics; type: biochemical; details: substrate S-2251, PBS buffer, pH 7.4, 25° C.
Procedure: The amidolytic activity of (TAL6003)-plasmin was examined using the plasmin substrate D-Val-Leu-Lys-p-nitroanilide (S-2251) (DiaPharma, West Chester, Ohio).
(§1) Correcting kcat for percent active sites, a kcat of about 725 min^−1 was determined. This value was very close to the value determined in the same assay for full-length plasmin, 820±23 min^−1 and for micro-plasmin (lacking all five kringles), 795±24 min^−1.

[2] = as above; type: biochemical; details: S-2251, PBS, pH 7.4, 25° C.; before correction for percent active sites
[3] = pNPGB active site titration; type: biochemical
Procedure: as §1

[4] = stability and formulation pH; type: physicochemical
From the text: As shown previously for plasmin by Novokhatny et al., J. Thromb. Haemost. […] When mixed with plasma or neutral pH buffers, (TAL6003)-plasmin is quickly re-activated.

α2-antiplasmin = target: T1, α2-antiplasmin (Homo sapiens, UniProt P08697); assay: rate of inhibition by α2-antiplasmin (method of Wiman and Collen, S-2251 activity at time points); type: biochemical; details: 22° C. in PBS buffer, pH 7.4
T1 sequence (P08697 40-491): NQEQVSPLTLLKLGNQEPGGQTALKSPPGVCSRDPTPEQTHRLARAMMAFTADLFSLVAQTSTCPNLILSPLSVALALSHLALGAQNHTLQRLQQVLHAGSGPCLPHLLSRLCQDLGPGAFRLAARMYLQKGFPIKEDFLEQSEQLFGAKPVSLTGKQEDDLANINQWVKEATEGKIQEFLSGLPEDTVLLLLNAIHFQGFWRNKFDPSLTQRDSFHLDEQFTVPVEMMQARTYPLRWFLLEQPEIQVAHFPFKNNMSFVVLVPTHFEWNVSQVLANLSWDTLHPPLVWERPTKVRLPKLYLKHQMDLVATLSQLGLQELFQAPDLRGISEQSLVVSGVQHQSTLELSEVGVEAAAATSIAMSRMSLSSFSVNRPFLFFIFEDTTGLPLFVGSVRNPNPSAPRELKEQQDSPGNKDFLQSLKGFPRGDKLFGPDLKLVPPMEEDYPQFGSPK
Procedure: The rate of inhibition of (TAL6003)-plasmin by α2-antiplasmin was determined to be 1.8±0.06×10^7 M^−1 s^−1 using the method of Wiman and Collen (Wiman, B. and D. Collen, Eur. J. Biochem. 84: 573-578 (1978)) in which plasmin and α2-antiplasmin are mixed then assayed for S-2251 activity at specific time points (Table 3).
Literature values are taken from Anonick, et al., Thrombosis Res. 59: 449 (1990). All rates were measured according to the methods published in Anonick, et al.

B1: (TAL6003)-plasmin: two-chain active enzyme obtained by streptokinase activation of (TAL6003)-plasminogen (protein)
chain: MRDVVLFEKKVYLSECKTGNGKNYRGTMSKTKNGITCQKWSSTSPHRPRFSPATHPSEGLEENYCRNPDNDPQGPWCYTTDPEKRYDYCDVPQCAAPSFDCGKPQVEPKKCPGRVVGGCVAHPHSWPWQVSLRTRFGMHFCGGTLISPEWVLTAAHCLEKSPRPSSYKVILGAHQEVNLEPHVQEIEVSRLFLEPTRKDIALLKLSSPAVITDKVIPACLPSPNYVVADRTECFITGWGETQGTFGAGLLKEAQLPVIENKVCNRYEFLNGRVQSTELCAGHLAGGTDSCQGDSGGPLVCFEKDKYILQGVTSWGLGCARPNKPGVYVRVSRFVTWIEGVMRNN
modifications: Polypeptide having a single N-terminal kringle domain homologous to a kringle domain of a native human plasminogen
For B1, the Km [1] was 141 µM, the “kcat for the preparation” value [2] was “about 725 min−1” and the “percent of functional active sites” value [3] was 67%. The “storage stability in the final formulation” value ([4]; pH 3.6, acidified with acetic acid-saline, low buffering capacity) was “allows safe storage of active plasmins for prolonged periods of time”, the “stability at physiological pH” value ([4]; physiological pH) was “prone to auto-degradation” and the “rate of inhibition by α2-antiplasmin” value (α2-antiplasmin) was 1.8±0.06×10^7 M^−1 s^−1.
